Measurements as given in patent US20240150797A1, “BIOCATALYTICAL PRODUCTION OF DIHYDROCHALCONES” (Symrise AG, priority 2021, published 2024).
Where a chain is given by its changes, count along the chain named.

B1: CHI10: Chalcone isomerase from Clostridium sp. SY8519, access no. WP_013977558.1 (protein)
chain: ADFEFNPMRSLIYIDCVKNDYRHKLQYWLYKHHIPDSIAKFEPYVSKYAFYSALPVPEDGEEFGTYNYQLTEHYWLCNPLTADFAVNSLQESFTPDVLKWQGIIPDIDITPEMMAAMQNADDARASEGSEAPGFDLPPFIFAFLPLSWEFQTKGEKLTIEDGPNYRWQFLVKYPEAADAEQADKWLMEEVIPAFAQMDEVKRILSSKVKQEVNGCVYYRVVEMWFDSPSDWHRAVKEKTGAISKPEWASTDSFPYLRPKHEMASIFLSDIPTTDNLLQYRGFIPMR
modifications: Clostridium sp. SY8519
B2: CHI15: Chalcone isomerase from Clostridioides difficile, access no. WP_095917646.1 (protein)
chain: ADFEFKIMRSLIYVGLAKEEYRPKLMDWLYRHHIPDSISTFGPYCTKYAFYQAYPTPNEGERFGARKMQLTEHYWLVDEHMPEMANRIMTEYMPMDVLRWQGCIPDVENKRVHENVESGDAGRAVGGDNGCPPFIFAFVPINWEEDFRGKGRTVQDGPNYRWQFMIKYPDGISKEEGEKWFYDEVVPYFTNCCYVNRFVSSKIMINYGATAFDRVSELWFEGEEEWYKAVVEETKSFIKKPEWAQEEEFPYLKPQFNIASVFLGDIATMDAYSQYRGYIPMR
modifications: Clostridioides difficile
B3: CHI14: Chalcone isomerase from Butyrivibrio sp. AC2005, access no. WP_026657636.1 (protein)
chain: AYEFNLMRSLIYVGLAKEEYRAKLEHWLYNHHVPESISKFSPYVTKYAFYQAYPTPPEGDRFGARKMQLTEHYWLVNEHLPEMANNIFQEFMPMDVLRWQGCIPDVDSATVHDNAESGDAGRAVGGGDFPPFIFAFVPINWEEDFKGKERTPVNGPNFRWQFLIQYPEGCSKDEGERWFHEEVVPFLTGSVRVNRLVSSKVKVNYGAPSAQFDRLVEVWFDGPEEWYDLCVNLAKDKLKKPEWAQQDTFPFLKPQHNIASMFLGDRCTSDNLTQYRGFITMR
modifications: Butyrivibrio sp. AC2005
B4: CHI11: Chalcone isomerase from Eubacterium sp., access no. SCK02381.1 (protein)
chain: TKNMLGFEPMRSLIYVDVAKEDYRVKLENWLYKYHIPDSISQFGPYVSKYAFYQALPVPEGGERFGAIKMQLTEHYWLANPNNIAQFDHHKALTEYFPPDVLKWQGNLPDEDFQCENVEGDEARAVKGDASKGTVPFIFAFVPVWWEEDYKGAGRTIEDGPNYRWQMVIKFPDDAKDTGDKWLRDEFIPAFVECEETTRILSSKVIKEANGCEFDRVVEMWFEGPSAWKAAVGKAAKKVRRPAWFETEDFPYLTQSYGISSIFLSDIARSDNMTQYNGYVTMR
modifications: Eubacterium sp
B5: CHI7: Chalcone isomerase from Clostridium sp. SY8519, access no. WP_013978403.1 (protein)
chain: ADFKFEPMRSFIYVNCAKEDYRPKLQRWLYKTHVPDSIGQFEPYVTKYAFYPSFPTPPEGERFGYCSMQLTEHHWMVSDFDERLGIKAIAETFPPEVLLWQGNITEGMLEAMKKNGGAPGDDGGDSGNEARSTNMEGANPFIFCFAPYWWEDDIKGKGRTIEDGANYRWNVAIGYPEGVSAEEGDRWLFEEVIPVFEAAPECTRILHSKVKKEINGGSGMEHILEFWFENQSGWYQTAVEATKTLKKPAWAQQDQFPFLKPYHKFISVAVADFTMANNLVNYHGYIPRR
modifications: Clostridium sp. SY8519
B6: CHI13: Chalcone isomerase from Lactobacillus sp. 54-2, access no. WP_125715151.1 (protein)
chain: SFEFRPMRSVIYVDVIKEKYRPKLLHWLYGHHIQDSISKFGPYVTKYAFYNAFPVPPEGERFGTRRMQMTEHYWLINEMTPEMKNNAITEYMPKDVLRWQGNIPDTDAAAAGNVDGDTGRSAGGANGCQPFVFAHVPINWEEDYKGDGRMVADGPNYRWQFVIKYPENLTEAAGEAWFHDEVVPYFKGRPEVHRFMSSRIMQDVVGCEFERLVEMWFDSEDEWYTAAVAGTTALKKPSWAQQNQFPFLTPQFNIVGMFLPDIPTSDNLAQYRGYITMR
modifications: Lactobacillus sp. 54-2
B7: CHIera Mut2: Chalcone isomerase variant 2 from Eubacterium ramulus, genetically engineered (protein, listed as Eubacterium ramulus)
chain: MADFKFEPMRSLIYVDCVSEDYRPKLQRWIYKVHIPDSISQFEPYVTKYAFYPSFPIPPQGDRFGYARMQLTEHHWLVSPLDPRLEIKAIAETFPMDVLVWQGQIPAAAHTDAQIDSDGDAGRAAGKSNNAEGNPFIFAFLPMWWEKDLKGKGRTIEDGANYRFNMTIGFPEGVDKAEGEKWLFEKVVPILQAAPECTRVLASAVKKDINGCVMDWVLEIWFENQSGWYKVMVDDMKALEKPSWAQQDAFPFLKPYHNVCSAAVADYTPSNNLANYRGYITMR
B8: CHIera Mut9: Chalcone isomerase variant 9 from Eubacterium ramulus, genetically engineered (protein, listed as Eubacterium ramulus)
chain: B7 chain with P80M, R123N, G126R
B9: CHIera Mut11: Chalcone isomerase variant 11 from Eubacterium ramulus, genetically engineered (protein, listed as Eubacterium ramulus)
chain: B7 chain with R123D, G126R
B10: CHIera Mut4: Chalcone isomerase variant 4 from Eubacterium ramulus, genetically engineered (protein, listed as Eubacterium ramulus)
chain: B7 chain with P80E, G126K
B11: CHIera Mut10: Chalcone isomerase variant 10 from Eubacterium ramulus, genetically engineered (protein, listed as Eubacterium ramulus)
chain: B7 chain with P80I, R123D, G126R
B12: CHIera Mut7: Chalcone isomerase variant 7 from Eubacterium ramulus, genetically engineered (protein, listed as Eubacterium ramulus)
chain: B7 chain with Q41T, P80E, K88R, R123D, G126R
B13: CHI3: Chalcone isomerase from Clostridium sp. JN500901, access no. WP_119972745.1 (protein)
chain: SIEFKPMRSLIYVDVVKEDYRHMLKHWLYYHHIPDSISQFGPYVTKYAFYPALPTPPDGERFGTHRMQLTEHYWLVNPLTPEFKNKTMTEYFPVDVLKWQGNVPDDNEVAILEGKETEKVESGDAARSTGGDNGMPPFIWAFVPISWEEDLKGEGRSMEDGPNYRWQFVMKYPDGVPMEEGDKWFYKEVIPKFQDSPDVTRILTSKIIQNINDCPYQRIVEMWFNCPSGWHRAAVEKAREIKKPSWAKYDEFPYLKPKFEISSLFLTDIAESDNYTQYRGFIPMR
modifications: Clostridium sp. JN500901

Test: Specific activity of purified CHI, absorbance decrease at 384 nm, naringenin chalcone
Format: biochemical
Details: purified CHI in 50 mM PBS, 100 μM substrate, 25° C.
Procedure: (§1) E. coli BL21 (DE3) cells containing one of the pET28b plasmids from Table 2 or Table 3 were used to inoculate 1 L LB medium at OD of 0.1. Cells were incubated at 37° C., 250 rpm until the OD reached 0.4-0.6 and induced by supplementing with 0.1 mM IPTG. After protein expression at 28° C., 250 rpm for 16 h, the cells were harvested by centrifugation at 4,000×g for 15 min. The harvested cells were lysed with 0.5 mg/mL lysozyme (Sigma-Aldrich), 0.4 U/mL Benzonase (Sigma-Aldrich) and BugBuster (Merck) at room temperature for 0.5 h to obtain a crude cell extract. The crude extract was centrifuged at 10,000×g for 30 min to remove the pellet. Recombinant proteins were purified by Ni-affinity chromatography (GE Healthcare). The supernatant of the crude extract was loaded on the column with 20 mM imidazole. The column was washed by 5 column volumes of 30 mM imidazole with 20 mM PBS (pH 7.4) and 500 mM NaCl. The target proteins were eluted by 150 mM imidazole with 20 mM PBS (pH 7.4) and 500 mM NaCl. Buffer exchange with 50 mM PBS (pH 7.5) was achieved by ultrafiltration with Amicon Ultra-15 (Merck). The activity of the respective purified enzyme was determined by measuring the absorbance decrease at 384 nm in the reaction mix (CHI in 50 mM PBS with 100 μM of either naringenin chalcone, hesperetin chalcone, eriodictyol chalcone, homoeriodictyol chalcone or 4-O-methyl butein at 25° C.).

| Molecule | Specific activity, Naringenin chalcone |
| --- | --- |
| B1 | 0.7 |
| B2 | 14.5 |
| B3 | 45.9 |
| B4 | 23.2 |
| B5 | 68.3 |
| B6 | 32.7 |
| B7 | 4.4 |
| B8 | 67.5 |
| B9 | 76.8 |
| B10 | 2.3 |
| B11 | 26.4 |
| B12 | 61.4 |
| B13 | 20.0 |

Test: Specific activity of purified CHI, absorbance decrease at 384 nm, eriodictyol chalcone
Format: biochemical
Details: purified CHI in 50 mM PBS, 100 μM substrate, 25° C.
Procedure: as §1

| Molecule | Specific activity, Eriodictyol chalcone |
| --- | --- |
| B1 | 2.5 |
| B2 | 11.7 |
| B3 | 50.4 |
| B4 | 10.8 |
| B5 | 123.6 |
| B6 | 66.2 |
| B7 | 8.3 |
| B8 | 43.7 |
| B9 | 91.1 |
| B10 | 8.9 |
| B11 | 60.0 |
| B12 | 181.3 |
| B13 | 13.2 |

Test: Specific activity of purified CHI, absorbance decrease at 384 nm, hesperetin chalcone
Format: biochemical
Details: purified CHI in 50 mM PBS, 100 μM substrate, 25° C.
Procedure: as §1

| Molecule | Specific activity, Hesperetin chalcone |
| --- | --- |
| B1 | 1.2 |
| B2 | 1.3 |
| B3 | 2.1 |
| B4 | 5.8 |
| B5 | 6.4 |
| B6 | 2.0 |
| B7 | 11.5 |
| B8 | 57.4 |
| B9 | 75.5 |
| B10 | 4.7 |
| B11 | 96.4 |
| B12 | 28.4 |
| B13 | 12.8 |

Test: Specific activity of purified CHI, absorbance decrease at 384 nm, homoeriodictyol chalcone
Format: biochemical
Details: purified CHI in 50 mM PBS, 100 μM substrate, 25° C.
Procedure: as §1

| Molecule | Specific activity, Homoeriodctiol chalcone |
| --- | --- |
| B1 | 0.2 |
| B2 | 2.2 |
| B3 | 28.8 |
| B4 | 11.4 |
| B5 | 50.2 |
| B6 | 21.7 |
| B7 | 3.5 |
| B8 | 14.4 |
| B9 | 30.8 |
| B10 | 4.8 |
| B11 | 17.9 |
| B12 | 62.2 |
| B13 | 7.8 |
